Reference: paper PMC5088048 (Structure (London, England : 1993), 2016)

T1: RING1B, full-length (UniProt Q99496 1-336)
T1 sequence (looked up): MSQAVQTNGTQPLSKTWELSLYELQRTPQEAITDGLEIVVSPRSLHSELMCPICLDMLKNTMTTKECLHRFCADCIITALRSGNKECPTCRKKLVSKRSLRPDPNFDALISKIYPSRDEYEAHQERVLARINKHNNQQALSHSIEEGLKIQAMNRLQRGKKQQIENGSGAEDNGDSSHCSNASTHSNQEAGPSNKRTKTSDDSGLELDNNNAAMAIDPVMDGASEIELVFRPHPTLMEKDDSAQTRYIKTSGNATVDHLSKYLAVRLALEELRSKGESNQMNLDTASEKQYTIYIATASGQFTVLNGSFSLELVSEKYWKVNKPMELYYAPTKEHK

B1: BCORL1 PUFD (1594–1711) (domain or fragment)
chain: METRDDFMFELSDKPLLPCYNLQVSVSRGPCNWFLFSDVLKRLKLSSRIFQARFPHFEITTMPKAEFYRQVASSQLLTPAERPGGLDDRSPPGSSETVELVRYEPDLLRLLGSEVEFQSCNS
B2: PCGF1 150–255/BCORL1 PUFD dimer (complex)
chain 1: LPFSSFDHSKAHYYRYDEQLNLCLERLSSGKDKNKSVLQNKYVRCSVRAEVRHLRRVLCHRLMLNPQHVQLLFDNEVLPDHMTMKQIWLSRWFGKPSPLLLQYSVK
chain 2: B1 chain
B3: PCGF1 35–255 (RING finger and RAWUL domains) (domain or fragment, UniProt Q9BSM1 35-255, looked up)
chain: RVKIKDLNEHIVCCLCAGYFVDATTITECLHTFCKSCIVKYLQTSKYCPMCNIKIHETQPLLNLKLDRVMQDIVYKLVPGLQDSEEKRIREFYQSRGLDRVTQPTGEEPALSNLGLPFSSFDHSKAHYYRYDEQLNLCLERLSSGKDKNKSVLQNKYVRCSVRAEVRHLRRVLCHRLMLNPQHVQLLFDNEVLPDHMTMKQIWLSRWFGKPSPLLLQYSVK

Experiments:
RING1B, full-length = target: T1, RING1B, full-length; experiment: AUC
[1] = target: B3; experiment: AUC
[2] = target: KDM2B 1059–1336/SKP1 heterodimer (UniProt Q8NHM5 1059-1336; P63208 2-163); experiment: ITC
KDM2B 1059–1336/SKP1 heterodimer, sequence (Q8NHM5 1059-1336, chain 1 of 2): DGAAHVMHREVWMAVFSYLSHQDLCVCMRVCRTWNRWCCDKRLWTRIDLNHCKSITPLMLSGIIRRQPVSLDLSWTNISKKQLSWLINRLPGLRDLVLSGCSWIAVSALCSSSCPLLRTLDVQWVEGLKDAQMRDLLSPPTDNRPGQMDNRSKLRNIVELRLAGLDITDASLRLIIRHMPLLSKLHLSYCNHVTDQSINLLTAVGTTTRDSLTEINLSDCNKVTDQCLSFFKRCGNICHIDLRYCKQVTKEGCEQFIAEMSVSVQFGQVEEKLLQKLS
KDM2B 1059–1336/SKP1 heterodimer, sequence (P63208 2-163, chain 2 of 2): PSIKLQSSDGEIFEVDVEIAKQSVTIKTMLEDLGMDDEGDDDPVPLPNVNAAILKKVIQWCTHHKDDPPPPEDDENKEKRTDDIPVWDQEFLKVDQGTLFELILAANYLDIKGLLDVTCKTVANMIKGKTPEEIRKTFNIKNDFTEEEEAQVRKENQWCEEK

stoichiometry N (RING1B, full-length) | stoichiometry N [1] | Kd [2] [nM] | Binder
1 | 1 | – | B1
– | – | 2800 | B2
1 | – | – | B3
